No end group written: not given here.
B1: ADP106 (protein)
chain: MAGGRCGPQLTALLAAWIAAVAATAGPEEAALPPEQSRVQPMTASNWTLVMEGEWMLKFYAPWCPSCQQTDSEWEAFAKNGEILQISVGKVDVIQEPGLSGRFFVTTLPAFFHAKDGIFRRYRGPGIFEDLQNYILEKKWQSVEPLTGWKSPASLTMSGMAGLFSISGKIWHLHNYFTVTLGIP
modifications: bait human Fc-tagged dimer
B2: ADP295 (protein)
chain: MALLLCFVLLCGVVDFARSLSITTPEEMIEKAKGETAYLPCKFTLSPEDQGPLDIEWLISPADNQKVDQVIILYSGDKIYDDYYPDLKGRVHFTSNDLKSGDASINVTNLQLSDIGTYQCKVKKAPGVANKKIHLVVLVKPSGARCYVDGSEEIGSDFKIKCEPKEGSLPLQYEWQKLSDSQKMPTSWLAEMTSSVISVKNASSEYSGTYSCTVRNRVGSDQCLLRLNVVPPSNKAG
modifications: bait human Fc-tagged dimer
B3: ADP385 (protein)
chain: TIKANSEACRDGLRAVMECRNVTHLLQQELTEAQKGFQDVEAQAATCNHTVMALMASLDAEKAQGQKKVEELEGEITTLNHKLQDASAEVERLRRENQVLSVRIADKKYYPSSQDSSSAAAPQLLIVLLGLSALLQ
modifications: bait human Fc-tagged dimer
B4: ADP116 (protein)
chain: MVTLQTWLVQALFIFLTTESTGELLDPCGYISPESPVVQLHSNFTAVCVLKEKCMDYFHVNANYIVWKTNHFTIPKEQYTIINRTASSVTFTDIASLNIQLTCNILTFGQLEQNVYGITIISGLPPEKPKNLSCIVNEGKKMRCEWDGGRETHLETNFTLKSEWATHKFADCKAKRDTPTSCTVDYSTVYFVNIEVWVEAENALGKVTSDHINFDPVYKVKPNPPHNLSVINSEELSSILKLTWTNPSIKSVIILKYNIQYRTKDASTWSQIPPEDTASTRSSFTVQDLKPFTEYVFRIRCMKEDGKGYWSDWSEEASGITYEDRPSKAPSFWYKIDPSHTQGYRTVQLVWKTLPPFEANGKILDYEVTLTRWKSHLQNYTVNATKLTVNLTNDRYLATLTVRNLVGKSDAAVLTIPACDFQATHPVMDLKAFPKDNMLWVEWTTPRESVKKYILEWCVLSDKAPCITDWQQEDGTVHRTYLRGNLAESKCYLITVTPVYADGPGSPESIKAYLKQAPPSKGPTVRTKKVGKNEAVLEWDQLPVDVQNGFIRNYTIFYRTIIGNETAVNVDSSHTEYTLSSLTSDTLYMVRMAAYTDEGGKDGPEFTFTTPKFAQGEIE
modifications: bait human Fc-tagged dimer
B5: ADP318 (protein)
chain: MAGRLWPLLLSILTATAVPGPSLRRPSRELDATPRMTIPYEELSGTRHFKGQAQNYSTLLLEEASARLLVGARGALFSLSANDIGDGAHKEIHWEASPEMQSKCHQKGKNNQTECFNHVRFLQRLNSTHLYACGTHAFQPLCAAIDAEAFTLPTSFEEGKEKCPYDPARGFTGLIIDGGLYTATRYEFRSIPDIRRSRHPHSLRTEETPMHWLNDAEFVFSVLVRESKASAVGDDDKVYYFFTERATEEGSGSFTQSRSSHRVARVARVCKGDLGGKKILQKKWTSFLKARLICHIPLYETLRGVCSLDAETSSRTHFYAAFTLSTQWKTLEASAICRYDLAEIQAVFAGPYMEYQDGSRRWGRYEGGVPEPRPGSCITDSLRSQGYNSSQDLPSLVLDFVKLHPLMARPVVPTRGRPLLLKRNIRYTHLTGTPVTTPAGPTYDLLFLGTADGWIHKAVVLGSGMHIIEETQVFRESQSVENLVISLLQHSLYVGAPSGVIQLPLSSCSRYRSCYDCILARDPYCGWDPGTHACAAATTIANRTALIQDIERGNRGCESSRDTGPPPPLKTRSVLRGDDVLLPCDQPSNLARALWLLNGSMGLSDGQGGYRVGVDGLLVTDAQPEHSGNYGCYAEENGLRTLLASYSLTVRPATPAPAPKAPATPGAQLAPDVRL
modifications: bait human Fc-tagged dimer
B6: ADP370 (protein)
chain: MICQKFCVVLLHWEFIYVITAFNLSYPITPWRFKLSCMPPNSTYDYFLLPAGLSKNTSNSNGHYETAVEPKFNSSGTHFSNLSKTTFHCCFRSEQDRNCSLCADNIEGKTFVSTVNSLVFQQIDANWNIQCWLKGDLKLFICYVESLFKNLFRNYNYKVHLLYVLPEVLEDSPLVPQKGSFQMVHCNCSVHECCECLVPVPTAKLNDTLLMCLKITSGGVIFQSPLMSVQPINMVKPDPPLGLHMEITDDGNLKISWSSPPLVPFPLQYQVKYSENSTTVIREADKIVSATSLLVDSILPGSSYEVQVRGKRLDGPGIWSDWSTPRVFTTQDVIYFPPKILTSVGSNVSFHCIYKKENKIVPSKEIVWWMNLAEKIPQSQYDVVSDHVSKVTFFNLNETKPRGKFTYDAVYCCNEHECHHRYAELYVIDVNINISCETDGYLTKMTCRWSTSTIQSLAESTLQLRYHRSSLYCSDIPSIHPISEPKDCYLQSDGFYECIFQPIFLLSGYTMWIRINHSLGSLDSPPTCVLPDSVVKPLPPSSVKAEITINIGLLKISWEKPVFPENNLQFQIRYGLSGKEVQWKMYEVYDAKSKSVSLPVPDLCAVYAVQVRCKRLDGLGYWSNWSNPAYTVVMDIKVPMRGPEFWRIINGDTMKKEKNVTLLWKPLMKNDSLCSVQRYVINHHTSCNGTWSEDVGNHTKFTFLWTEQAHTVTVLAINSIGASVANFNLTFSWPMSKVNIVQSLSAYPLNSSCVIVSWILSPSDYKLMYFIIEWKNLNEDGEIKWLRISSSVKKYYIHDHFIPIEKYQFSLYPIFMEGVGKPKIINSFTQDDIEKHQSDA
modifications: bait human Fc-tagged dimer
B7: ADP315 (protein)
chain: MARAHWGCCPWLVLLCACAWGHTKPVDLGGQDVRNCSTNPPYLPVTVVNTTMSLTALRQQMQTQNLSAYIIPGTDAHMNEYIGQHDERRAWITGFTGSAGTAVVTMKKAAVWTDSRYWTQAERQMDCNWELHKEVGTTPIVTWLLTEIPAGGRVGFDPFLLSIDTWESYDLALQGSNRQLVSITTNLVDLVWGSERPPVPNQPIYALQEAFTGSTWQEKVSGVRSQMQKHQKVPTAVLLSALEETAWLFNLRASDIPYNPFFYSYTLLTDSSIRLFANKSRFSSETLSYLNSSCTGPMCVQIEDYSQVRDSIQAYSLGDVRIWIGTSYTMYGIYEMIPKEKLVTDTYSPVMMTKAVKNSKEQALLKASHVRDAVAVIRYLVWLEKNVPKGTVDEFSGAEIVDKFRGEEQFSSGPSFETISASGLNAALAHYSPTKELNRKLSSDEMYLLDSGGQYWDGTTDITRTVHWGTPSAFQKEAYTRVLIGNIDLSRLIFPAATSGRMVEAFARRALWDAGLNYGHGTGHGIGNFLCVHEWPVGFQSNNIAMAKGMFTSIEPGYYKDGEFGIRLEDVALVVEAKTKYPGSYLTFEVVSFVPYDRNLIDVSLLSPEHLQYLNRYYQTIREKVGPELQRRQLLEEFEWLQQHTEPLA
modifications: bait human Fc-tagged dimer
B8: ADP114 (protein)
chain: MVMSVGLSLLLPLWGRTFLLLLSVVMAQSHWPSEPSEAVRDWENQLEASMHSVLSDLHEAVPTVVGIPDGTAVVGRSFRVTIPTDLIASSGDIIKVSAAGKEALPSWLHWDSQSHTLEGLPLDTDKGVHYISVSATRLGANGSHIPQTSSVFSIEVYPEDHSDLQSVRTASPDPGEVVSSACAADEPVTVLTVILDADLTKMTPKQRIDLLHRMRSFSEVELHNMKLVPVVNNRLFDMSAFMAGPGNPKKVVENGALLSWKLGCSLNQNSVPDIHGVEAPAREGAMSAQLGYPVVGWHIANKKPPLPKRVRRQIHATPTPVTAIGPPTTAIQEPPSRIVPTPTSPAIAPPTETMAPPVRDPVPGKPTVTIRTRGAIIQTPTLGPIQPTRVSEAGTTVPGQIRPTMTIPGYVEPTAVATPPTTTTKKPRVSTPKPATPSTDSTTTTTRRPTKKPRTPRPVPRVTTKVSITRLETASPPTRIRTTTSGVPRGGEPNQRPELKNHIDRVDAWVGTYFEVKIPSDTFYDHEDTTTDKLKLTLKLREQQLVGEKSWVQFNSNSQLMYGLPDSSHVGKHEYFMHATDKGGLSAVDAFEIHVHRRPQGDRAPARFKAKFVGDPALVLNDIHKKIALVKKLAFAFGDRNCSTITLQNITRGSIVVEWTNNTLPLEPCPKEQIAGLSRRIAEDDGKPRPAFSNALEPDFKATSITVTGSGSCRHLQFIPVVPPRRVPSEAPPTEVPDRDPEKSSEDDVYLHT
modifications: bait human Fc-tagged dimer

Biological target: Circumsporozoite protein (CSP) (Plasmodium falciparum (isolate 3D7), UniProt Q7K740)
Sequence (Q7K740 19-374): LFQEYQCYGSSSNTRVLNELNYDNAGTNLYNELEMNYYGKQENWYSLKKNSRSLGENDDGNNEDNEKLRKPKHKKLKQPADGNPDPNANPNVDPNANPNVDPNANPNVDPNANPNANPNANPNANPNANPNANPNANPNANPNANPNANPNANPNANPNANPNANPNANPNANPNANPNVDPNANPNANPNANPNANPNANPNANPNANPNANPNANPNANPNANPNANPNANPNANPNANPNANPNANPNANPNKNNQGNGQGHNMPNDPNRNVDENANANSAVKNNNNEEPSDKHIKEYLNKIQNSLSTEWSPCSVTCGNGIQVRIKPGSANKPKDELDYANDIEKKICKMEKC
Assay: AVEXIS screen signal:noise (double-corrected)

Point of comparison: B1, binding score 1.3. Against it:
- MAIHKALVMCLGLPLFLFPGAWAQGHVPPGCSQGLNPLYYNLCDRSGAWG (cysteine pairing not given here; also: human Fc-tagged dimer) [ADP328] — lower, 1.01
- B2 — lower, 1.09
- B3 — lower, 0.643
- B4 — higher, 1.88
- B5 — higher, 3.59
- B6 — lower, 1.01
- B7 — higher, 2.59
- B8 — lower, 1.2
